Test [1] has as its target T1, human NPRA on HEK293 cells bound to ANP (human, UniProt P01160 124-151).
T1 sequence: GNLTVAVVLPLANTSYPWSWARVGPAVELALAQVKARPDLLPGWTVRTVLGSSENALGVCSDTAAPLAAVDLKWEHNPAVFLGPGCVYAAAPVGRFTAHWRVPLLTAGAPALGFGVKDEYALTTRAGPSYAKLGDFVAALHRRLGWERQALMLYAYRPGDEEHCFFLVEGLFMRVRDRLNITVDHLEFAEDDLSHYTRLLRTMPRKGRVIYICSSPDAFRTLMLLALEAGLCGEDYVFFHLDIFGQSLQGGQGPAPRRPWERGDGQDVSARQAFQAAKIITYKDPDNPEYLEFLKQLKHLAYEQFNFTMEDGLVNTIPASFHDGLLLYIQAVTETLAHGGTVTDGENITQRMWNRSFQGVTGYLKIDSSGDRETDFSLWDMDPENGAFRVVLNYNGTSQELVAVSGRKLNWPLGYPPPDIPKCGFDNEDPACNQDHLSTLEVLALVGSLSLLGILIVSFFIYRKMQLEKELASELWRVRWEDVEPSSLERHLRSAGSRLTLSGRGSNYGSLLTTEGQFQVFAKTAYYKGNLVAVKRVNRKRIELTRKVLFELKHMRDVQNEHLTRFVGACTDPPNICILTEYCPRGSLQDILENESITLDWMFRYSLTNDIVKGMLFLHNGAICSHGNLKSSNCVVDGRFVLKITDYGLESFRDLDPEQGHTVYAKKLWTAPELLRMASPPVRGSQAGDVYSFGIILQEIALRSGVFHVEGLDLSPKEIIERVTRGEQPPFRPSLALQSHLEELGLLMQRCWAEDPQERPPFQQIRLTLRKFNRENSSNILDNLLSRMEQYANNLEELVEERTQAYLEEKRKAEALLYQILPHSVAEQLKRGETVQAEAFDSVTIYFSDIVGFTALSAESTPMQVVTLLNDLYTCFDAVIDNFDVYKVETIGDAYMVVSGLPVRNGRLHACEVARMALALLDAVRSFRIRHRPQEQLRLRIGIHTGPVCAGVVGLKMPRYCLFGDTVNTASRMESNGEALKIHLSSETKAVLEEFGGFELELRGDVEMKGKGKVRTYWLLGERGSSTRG
T1 sequence (peptide): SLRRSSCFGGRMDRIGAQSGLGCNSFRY
Put plainly: cell-based or functional assay.

The target in test [2] is T2, human NPRA on HEK293 cells bound to BNP (human, UniProt P16860 103-134).
T2 sequence: T1 sequence
T2 sequence (peptide): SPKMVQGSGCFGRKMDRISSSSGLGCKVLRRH
In words: cell-based or functional assay.

For test [3], the target named is T1, human NPRA on HEK293 cells bound to ANP. In words: FACS, HEK NPRA cells with ANP.
In test [4] the target is T3, human NPRA on HEK293 cells, without added ligand (human, UniProt P16066 33-1061).
T3 construct: a signal peptide is not delimited; also called HEK NPRA cells; HEK hNPRA cells
T3 sequence: T1 sequence
Put plainly: FACS, HEK NPRA cells without ligand.

In test [5] the target is T1, human NPRA on HEK293 cells bound to ANP. In words: FACS titration on ANP bound HEK NPRA cells; ANP bound HEK NPRA cells.
Test [6] concerns the target T2, human NPRA on HEK293 cells bound to BNP. In words: FACS titration on BNP bound HEK NPRA cells; BNP bound HEK NPRA cells.
Test [7] addresses T4, atrial natriuretic peptide (ANP), free (UniProt P01160 124-151, 125I label in the radioligand assays of Example 10).
T4 construct: mature; also called free ANP
T4 peptide (looked up): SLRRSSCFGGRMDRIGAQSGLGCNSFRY
In words: FACS competition: Fab pre-incubated with free ANP, then HEK NPRA cells loaded with 100 nM ANP.

The target in test [8] is T1, human NPRA on HEK293 cells bound to ANP. Put plainly: cell-based or functional assay. This is another data set of the same source.
Test [9] has the same target. Put plainly: FACS, HEK NPRA cells loaded with 100 nM ANP.
The target in test [10] is T5, human NPRC on HEK293 cells, without added ligand (human, UniProt P17342 27-541).
T5 construct: whole, on cells; also called HEK NPRC cells; natriuretic peptide receptor C
T5 sequence (looked up): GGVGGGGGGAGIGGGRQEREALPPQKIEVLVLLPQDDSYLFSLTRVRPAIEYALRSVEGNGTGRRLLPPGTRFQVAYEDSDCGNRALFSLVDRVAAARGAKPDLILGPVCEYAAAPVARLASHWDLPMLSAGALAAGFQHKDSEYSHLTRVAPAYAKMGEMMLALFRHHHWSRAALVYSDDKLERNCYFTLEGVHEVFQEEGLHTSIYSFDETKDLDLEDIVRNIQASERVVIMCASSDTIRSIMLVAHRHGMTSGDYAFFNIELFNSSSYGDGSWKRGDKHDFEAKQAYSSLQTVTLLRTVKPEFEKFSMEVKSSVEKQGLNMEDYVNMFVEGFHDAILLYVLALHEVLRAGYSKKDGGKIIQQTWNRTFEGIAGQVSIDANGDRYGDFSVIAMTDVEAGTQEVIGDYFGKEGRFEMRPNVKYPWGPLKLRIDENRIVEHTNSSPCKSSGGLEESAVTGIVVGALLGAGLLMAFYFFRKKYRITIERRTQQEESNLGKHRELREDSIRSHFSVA
Put plainly: FACS, HEK NPRC cells without ligand. (In general: A flow cytometer gives signals particle by particle.)
Experimental: (§1) HEK NPRA cells are detached with Accutase (PAA Laboratories GmbH, Cat. No. L11-007, Austria), harvested by centrifugation (900 rpm, 4 minutes) and resuspended in FACS buffer (PBS/3% FCS/0.02% NaN3) to a final concentration of 10⁶ cells/ml. 100 μl of the cell suspension is transferred to each well of a 96 round bottom plate (TC Microwell 96U, Nunc). […] Cells are washed in 150 μl of FACS buffer, pelleted and resuspended in 50 μl of the solution containing the primary antibody comprising a BEL extract of Fabs, a diluted BEL extract or purified antibody diluted in FACS buffer and incubated on ice for 30 min. Cells are washed again in FACS buffer and resuspended in 50 μl of FACS buffer containing the secondary antibody (R-Phycoerythrin-conjugated Affipure F(ab′)₂ Fragment Goat Anti-Human IgG, Dianova) and incubated on ice for 45 min. Cells are washed twice with FACS buffer and resuspended in 200 μl of FACS buffer for analysis in the FACS Array (BD Biosciences).

Test [11] addresses T6, human NPRC on HEK293 cells in the presence of ANP (human, UniProt P17342 27-541; P01160 124-151).
T6 construct: whole, on cells;mature; also called HEK NPRC cells + 100 nM ANP
T6 sequence (looked up): T5 sequence (looked up)
T6 sequence (peptide, looked up): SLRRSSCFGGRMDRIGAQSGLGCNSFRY
In words: FACS, HEK NPRC cells with 100 nM ANP.
Experimental: as §1

Test [12] concerns the target T7, human NPRC on HEK293 cells in the presence of BNP (human, UniProt P17342 27-541; P16860 103-134).
T7 construct: whole, on cells;mature; also called HEK NPRC cells + 100 nM BNP
T7 sequence (looked up): T5 sequence (looked up)
T7 sequence (peptide, looked up): T2 sequence (peptide)
Put plainly: FACS, HEK NPRC cells with 100 nM BNP.
Experimental: as §1

Test [13] has as its target T1, human NPRA on HEK293 cells bound to ANP. Put plainly: FACS, IgG4_Pro on HEK NPRA cells in the presence of 100 nM ANP.
Experimental: as §1
Test [14] addresses T8, NPRA-Fc fusion protein, without ligand (human).
T8 construct: also called NPRA-ECD-Fc; recombinant NPRA-Fc
T8 chain: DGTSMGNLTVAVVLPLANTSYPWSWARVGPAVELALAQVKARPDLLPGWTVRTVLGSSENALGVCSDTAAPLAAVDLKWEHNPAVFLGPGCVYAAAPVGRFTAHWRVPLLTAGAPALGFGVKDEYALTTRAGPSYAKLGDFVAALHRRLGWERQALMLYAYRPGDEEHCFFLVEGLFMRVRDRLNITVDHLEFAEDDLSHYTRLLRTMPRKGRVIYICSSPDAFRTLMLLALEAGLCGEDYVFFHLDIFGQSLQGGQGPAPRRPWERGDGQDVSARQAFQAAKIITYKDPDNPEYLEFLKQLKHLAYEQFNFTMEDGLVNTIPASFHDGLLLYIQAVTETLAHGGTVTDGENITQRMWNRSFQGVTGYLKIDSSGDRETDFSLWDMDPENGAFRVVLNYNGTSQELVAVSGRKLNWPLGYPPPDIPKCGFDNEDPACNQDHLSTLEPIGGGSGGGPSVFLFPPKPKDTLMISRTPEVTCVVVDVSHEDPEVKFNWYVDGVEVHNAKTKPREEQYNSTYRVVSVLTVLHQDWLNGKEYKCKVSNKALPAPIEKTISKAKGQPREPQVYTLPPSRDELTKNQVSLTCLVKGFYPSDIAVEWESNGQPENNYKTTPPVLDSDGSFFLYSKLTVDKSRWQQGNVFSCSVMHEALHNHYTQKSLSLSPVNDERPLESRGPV
Put plainly: ELISA on captured NPRA-Fc without ligand.

For a further test, the target named is T9, biotinylated ANP (UniProt P01160 124-151, biotin label (position not given)).
T9 construct: mature; Text: conjugated to Streptavidin beads; also called biotin-labeled ANP
T9 peptide (looked up): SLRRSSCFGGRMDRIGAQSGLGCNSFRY
In words: binding to biotinylated ANP on streptavidin, ECL readout (legend: ELISA). For orientation: ELISA stands for enzyme-linked immunosorbent assay.

B1: 5064 Fab (Fab, V domains shown)
VH: QVQLQQSGPGLVKPSQTLSLTCAISGDSVSSRSASWSWIRQSPGRGLEWLGRIYYRSKWYNDYAVSVKSRITINPDTSKNQFSLQLNSVTPEDTAVYYCARMDVPSFRYFDVWGQGTLVTVSS
VL: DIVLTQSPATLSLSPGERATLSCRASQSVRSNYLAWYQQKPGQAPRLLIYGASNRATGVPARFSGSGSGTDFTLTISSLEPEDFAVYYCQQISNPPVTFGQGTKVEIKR
On to B1, for which, in [1], the “EC50 of ANP, cGMP production in HEK NPRA cells, with 400 nM Fab” value was found to be 1 nM. In addition, the “fold decrease of the EC50 of BNP (cGMP, 400 nM Fab)” value in test [2] came out at 2 fold. Moreover, the 50% effective concentration (EC50 (read off the curve)) in [3] was around 100 nM. Further, the binding result in test [4] is recorded as “no binding (tested: 20 µg/ml)”; in test [7] it was “no binding (tested: 10000 nM)”. In addition, the EC50 in [5] was at least 100 nM; in test [6], at least 300 nM.

B2: 5064 IgG4_Pro (antibody, V domains shown)
VH: B1 VH
VL: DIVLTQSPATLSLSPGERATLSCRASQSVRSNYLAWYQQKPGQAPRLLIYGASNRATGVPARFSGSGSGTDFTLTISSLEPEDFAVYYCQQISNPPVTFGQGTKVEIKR
As for B2, the “cGMP EC50 (nM), titration of the antibody on HEK NPRA cells with 200 pM ANP” value in test [8] was found to be 12.1 nM. Moreover, the EC50 came out at 1.6 nM in test [9] and 1.08 nM in [13]. The binding result in test [10], in test [11] and in test [12] was “no binding (tested: 20 nM)” in each case.

B3: 5064 Fab-dHLX (other)
VH: B1 VH
VL: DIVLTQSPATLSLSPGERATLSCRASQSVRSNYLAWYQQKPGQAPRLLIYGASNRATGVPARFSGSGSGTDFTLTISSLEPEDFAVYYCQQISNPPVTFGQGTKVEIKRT
B3: the binding result in test [4] is on record as “no binding (tested: 20 µg/ml)”; in test [14], “no binding (tested: 20 µg/ml)”; in the test with biotinylated ANP, “no binding (tested: 10 nM)”.

Broadly, the EC50 (read off the curve) is the concentration at which the effect is half-maximal. Higher therefore signals weaker potency. Broadly, the EC50 is the concentration that produces a half-maximal response.
